Measurements published in paper PMC5826802.

Substrate: NC(=O)c1ccc[n+]([C@@H]2O[C@H](COP(=O)([O-])OP(=O)(O)OC[C@H]3O[C@@H](n4cnc5c(N)ncnc54)[C@H](O)[C@@H]3O)[C@@H](O)[C@H]2O)c1
Experiment: Enzyme kinetics of PARP15-catalyzed automodification by MLISA
Format: biochemical, human
Details: other: 500 nM PARP15, NAD+ 5-400 μM, Michaelis-Menten fit; pH 7.4

B1: PARP15 (Homo sapiens) (protein)
chain: NLPEHWTDMNHQLFCMVQLEPGQSEYNTIKDKFTRTCSSYAIEKIERIQNAFLWQSYQVKKRQMDIKNDHKNNERLLFHGTDADSVPYVNQHGFNRSCAGKNAVSYGKGTYFAVDASYSAKDTYSKPDSNGRKHMYVVRVLTGVFTKGRAGLVTPPPKNPHNPTDLFDSVTNNTRSPKLFVVFFDNQAYPEYLITFTA
  Km: 4.5 ± 2.9 µM
